According to US9284369B2, “Inhibition of angiogenesis” (Genentech, Inc., priority 2007, dated 2016):

Assays:
[1] = tested on: Bv8 protein levels; assay: Serum Bv8 in A673 tumor-bearing mice treated with cisplatin; assay type: in vivo, mouse; settings: cisplatin 5 mg/kg, alone or in combination with anti-VEGF
Experimental: FIG. 6. […] Anti-Bv8 treatment is mostly effective when treatment is initiated early in tumor development. […] Mice were then treated with control, anti-Bv8, anti-VEGF or combination (anti-VEGF plus anti-Bv8) of antibodies. Tumor volume was measured as described. * indicates significant difference (p<0.05) in tumor volume between combination therapy vs. anti-VEGF monotherapy. c&d. […] Nude mice (c) and C57B1/6 (d) mice were implanted with EL4 cells and underwent treatment with control, anti-Bv8, anti-VEGF or the combination. Tumor volume and terminal tumor weight were measured as described. * indicates significant difference […] in tumor volume in control vs. each monotherapy or the combination therapy. Differences in tumor volume are also significant when comparing combination vs. each monotherapy. e. Cisplatin and anti-VEGF treatment increase Bv8 concentration in the serum. Beige nude mice were implanted with A673 cells and were treated with PBS, cisplatin (5 mg/kg) plus control antibody, cisplatin plus anti-Bv8, or cisplatin plus anti-VEGF or the combination cisplatin, anti-Bv8 and anti-VEGF. Serum Bv8 protein concentrations were measured by ELISA. f. Chemotherapy plus anti-VEGF and anti-Bv8 can effectively suppress tumor growth in established A673 tumors. […]

[2] = tested on: A673, HM7, HPAC and Calu6 cells; assay: Tumor cell proliferation assay (BrdU incorporation); assay type: cell-based, human; settings: range of concentrations
Experimental: A673, HM7, HPAC and Calu6 cells were trypsinized and washed in media containing 0.5% FBS before seeding into 96-well black Viewplate (Packard Bioscience Company, Meriden, Conn.). Cells were incubated with various amounts of Bv8 (PeproTech Inc., Rocky Hill, N.J.) for 3 days. 10% FBS-containing media served as a positive control. Cell proliferation was assessed by BrdU incorporation using the Cell Proliferation ELISA kit (Roche).

[3] = tested on: human neutrophils; assay: Chemotaxis of peripheral blood neutrophils; assay type: cell-based
Experimental: 10^6 cells were washed with HBSS containing 0.2% BSA before putting into transwell insert with 5 μm pore size (Corning Incorporated, Lowell, Mass.). In the lower chamber, media alone or media with various cytokines at various concentrations (maximum at 200 ng/ml) was added. After 3 hr at 37° C., cells in the lower chamber were transferred, mixed with 9 ml ZPAK solution and counted on Z2 Coulter Particle Count and Size Analyzer (Beckman Coulter, Fullerton, Calif.).

[4] = biological target: T1, PKR1/EG-VEGFR1 (Homo sapiens, UniProt Q8TCW9); assay: Bv8 bioactivity assay, GeneBLAzer NFAT-CHO cells transfected with PKR1/EG-VEGFR1; assay type: cell-based; settings: Bv8 0.2-200 ng/ml; VEGF-A up to 200 ng/ml
T1 construct: host or cells: GeneBLAzer NFAT-CHO cells
T1 sequence (Q8TCW9 whole entry): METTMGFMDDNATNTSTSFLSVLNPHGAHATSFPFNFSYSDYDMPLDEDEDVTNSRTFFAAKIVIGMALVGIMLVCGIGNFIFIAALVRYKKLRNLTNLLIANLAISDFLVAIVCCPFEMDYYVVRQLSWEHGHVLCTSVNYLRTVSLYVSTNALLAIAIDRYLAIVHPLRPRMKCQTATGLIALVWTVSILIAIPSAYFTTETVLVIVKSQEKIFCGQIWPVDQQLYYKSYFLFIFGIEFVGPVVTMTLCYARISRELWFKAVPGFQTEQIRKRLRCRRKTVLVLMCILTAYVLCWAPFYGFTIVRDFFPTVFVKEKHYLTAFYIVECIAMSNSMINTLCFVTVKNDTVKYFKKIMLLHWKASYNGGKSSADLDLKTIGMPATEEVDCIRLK
Experimental: The GeneBLAzer® NFAT-CHO cells were obtained from Invitrogen Corporation (Carlsbad, Calif.). Cells were stably transfected with PKR1/EG-VEGFR1 and grown in DMEM (high glucose) containing 10% dialysed serum, 0.1 mM NEAA, 2 mM GlutaMax™ (Gibco), 1 mM sodium pyruvate, 10 μg/ml Zeocin, 500 μg/ml hygromycin. Cells were plated into 96-well Viewplate (Packard) with 2.5×10^4 in […] in 1% DMEM overnight at 5% CO2, 37° C. On the following day, cells were treated with various column fractions that were concentrated with Microcon Centrifugal Filter Devices (Ultracel YM-3) from Millipore. 0.2-0.02 ng/ml hBv8 (Peprotech Inc.) prepared in 1% DMEM was used as a positive control. One hour later, media was removed and replaced with […] Hank's solution containing 0.1% BSA and 6× loading buffer containing 1 mM CCF4 (Invitrogen Corporation). Plates were incubated for 1.5 hr at room temperature in the dark and read on Wallac plate reader at excitation wavelength of 410 nm and emission wavelength of 450/520 nm. Negative controls were cells with no ligand added and control media alone. CHO cells were stimulated with recombinant human Bv8 or pooled fractions for 1 hr before adding the β-lactamase substrate CCF4. To assess the specificity of the column fractions, anti-Bv8 antibodies 2B9 and 3F1 were added at […].

[5] = tested on: TIB42-TAEC cells; assay: In vitro tube formation of tumor-associated endothelial cells; assay type: cell-based, mouse; settings: Bv8 200 ng/ml, VEGF-A 100 ng/ml, 36 hours
Experimental: Tumor associated endothelial cells (TAECs) were isolated using a magnetic beads sorting system (Miltenyi Biotech), essentially as previously described (Hida et al., Cancer Res 64:8249-8255 (2004)). Briefly, TIB42 mouse lymphoma cells were injected into the dorsal lateral flanks of female beige nude mice. When tumors reached a diameter of […], they were excised, minced and then digested with collagenase II (Worthington Biochemical Corporation). Cell suspensions were than filtered using 100 μm to 40 μm meshes. CD31^+ cells were finally sorted using a FITC-CD31 antibody (BD Biosciences) according to the manufacturer's instructions. CD31+ cells were seeded in gelatin coated plates in the presence of EGM-2MV media (Cambrex). After 24 hs in culture CD31+ non-adherent cells were removed by washing several times with PBS.
For in vitro tube formation, TIB42-TAEC cells (passages 6-8) were starved for 5 hs in serum free medium. After this, cells were collected and resuspended in serum free medium supplemented with 5% BSA and treated with VEGF-A (100 ng/ml), Bv8 (200 ng/ml) or no addition (control). For specificity tests, Bv8, was incubated in the presence of anti-Bv8 Mabs (10 μg/ml). 5×10^5 cells were seeded in each well of a 24 well pre-coated with Matrigel™ (BD Biosciences) and tube formation was evaluated after 36 hours.

[6] = tested on: p44/42 MAPK; assay: MAPK phosphorylation in TAECs (Western blot); assay type: cell-based, mouse
Experimental: TIB42-TAEC cells were starved for 6 hr in basal media supplemented with 0.5% BSA. Cells were then stimulated with human recombinant Bv8 (200 ng/ml; PeproTech), Complete Media (CM), VEGF (100 ng/ml; PeproTech) or BSA (0.5%). Cell extracts were collected at the indicated time-points. Western blot analysis of the extracts from TIB42-TAEC cells was performed using PhosphoPlus p44/42 MAPK™ antibody kit (Cell signaling).

[7] = tested on: CD11b+Gr1+ myeloid cells; assay: Trans-well migration of BM CD11b+Gr1+ cells; assay type: cell-based, mouse; settings: comparable to SDF-1
Experimental: BMMNCs were isolated from naïve Beige nude mice and the CD11b+Gr1+ population was sorted using CD11b microbeads (Miltenyi Biotech, CA) according to protocols provided by the manufacturer. An aliquot of the sorted cells were stained with anti-CD11bAPC and antiGr1-PE to ensure the purity (100%) of CD11b+Gr1+ cells. For migration assay, 2.0×10^5 cells were plated on the top chamber of transwells (Corning Incorporated, NY). The bottom chambers contained 600 μL of media (IMDM (Gibco BRL, CA) supplemented with BIT (Stem Cell Technologies, BC, Canada) containing human Bv8, control antibody, and murine recombinant VEGF in separate wells. Cells were incubated at 37° C. and 5% CO2 for 9 hrs and migration of CD11+b+Gr1+ cells was evaluated by counting the cells in the bottom chamber.

[8] = tested on: Lin- and CD11b+Gr1+ BM cells; assay: Bv8 treatment of Lin- and CD11b+Gr1+ BM cells; assay type: cell-based, mouse
Experimental: Supplemental FIG. 3. a. Bv8 induces trans-well migration of CD11b+Gr1+ myeloid cells. Controls were PBS or media alone. b&c. Expression of Bv8 receptors in BMMNCs. Beige nude mice were implanted with A673, HM7, HPAC or Calu-06 cells as described. After 10 days, CD11b+Gr1+ myeloid cells were isolated from the BM and Taqman™ analysis was performed to investigate EG-VEGFRs expression in myeloid and non-myeloid (CD11b−Gr1−) subsets of tumor versus Matrigel™-implanted mice. […] Bv8 alters the fate of the progenitor population to myeloid cells (CD11b+Gr1+) and also inhibitors cell death in the Lin-population. The Lin-fraction, isolated from the BMMNCs of beige nude mice, was incubated with Bv8 for 5 days and the frequency of CD11b+Gr1+ cells was evaluated in a FACSCalibur machine. In addition, 7AAD staining was employed to measure the number of dead cells in each treatment. e. Bv8 induces clonogenic capacity of progenitor cells. Lin-population were treated with Bv8 or PBS for 5 days and were plated on methylcellulose (7500 cells per well) and were incubated in 5% CO2 and 37° C. for 15 days. […] L Bv8 is a survival factor for myloid populations. The CD11b+Gr1+ cells, isolated from the BMMNCs of beige/nude mice, were cultured in media and were treated with Bv8 (300 ng/ml) for 5 days. Cell death was measured in a FACSCalibur machine using 7AAD staining. g&h. […] Mice were implanted with A673 (e) or HM7 (f) tumors and were treated with anti-Bv8 or control antibodies as described. Treatment was stopped at day 7 after implantation, as indicated by arrow in the figure. i&j. Discontinued treatment of anti-Bv8 results in rebound of CD11b+Gr1+ cells to A673 (i) and HM7 (j) tumors.
However, the precise contribution of R1 vs. R2 in mediating Bv8 signaling in BMMNCs remains to be determined. […] To further characterize the effects of Bv8 on the cells of the hematopoietic system, both lineage depleted (Lin— that is devoid of CD11b+Gr1+ cells) and CD11b+Gr1+ cells were isolated from the BM of naïve mice and were treated with recombinant Bv8.

Molecule: N.N.[Cl][Pt][Cl] [cisplatin]
- Bv8 level in the serum [1]: significantly (p<0.05) increased

B1: Bv8: recombinant Bv8 (Prokineticin-2) protein, PeproTech (protein)
chain: AVITGACDKDSQCGGGMCCAVSIWVKSIRICTPMGKLGDSCHPLTRKVPFFGRRMHHTCPCLPGLACLRTSFNRFICLAQK
- effect on proliferation of tumor cell lines [2]: neither the anti-Bv8 Mabs nor Bv8 itself had any detectable effects
- effect on proliferation of tumor cell lines ([2]; listed as recombinant Bv8): failed to stimulate the proliferation
- concentration of maximal stimulation [3]: ~2 pM
- maximal stimulation of chemotaxis above control ([3]; 3 hr): ~3 fold
- stimulation of PKR1/EG-VEGFR1 transfected CHO cells [4]: dose-dependent stimulation
- tube formation in Matrigel [5]: promoted tube formation
- MAP kinase phosphorylation in TAECs [6]: strong induction of MAP kinase phosphorylation
- migration of BM CD11b+Gr1+ cells [7]: promoted migration
- dead cells among CD11b+Gr1+ cells ([8]; Bv8 300 ng/ml, 5 days): fewer dead cells
- number of dead cells in Lin- population ([8]; Bv8 for 5 days, 7AAD): significantly lower than controls
- CD11b+Gr1+ cells arising in Lin- population ([8]; Bv8 for 5 days, vs controls): higher expression of CD11b+Gr1+ cells
- MAPK pathway in CD11b+Gr1+ cells ([8]; data not shown): activation of MAPK pathway in a time dependent manner
- CFU colonies from Lin- cells ([8]; p<0.05 vs control-treated cells): greater number of colonies
